# Source: patent US9012606B2, “In vivo half life increased fusion protein or peptide maintained by sustained in vivo release, and method for increasng in vivo half-life using same” (Alteogen, Inc., priority 2009, dated 2015)
# What was measured:
# [1] = Pharmacokinetics of hGH and hGH/alpha-1 antitrypsin fusions (serum ELISA); type: in vivo; conditions: Sprague-Dawley rats, subcutaneous, 720 μg/kg
# Experimental: An anti-human growth hormone monoclonal antibody (Medix Biochemica, Finland) was diluted to a concentration of 1-5 μg/mL in phosphate buffered saline (PBS) and the dilution was aliquoted in an amount of 100 μL/well onto a 96-well plate (Nunc, Denmark) and incubated at room temperature for 15-18 hrs. After the antibody remaining suspended was removed, PBS containing 1% bovine serum albumin was plated in an amount of 250 μL/well and incubated at room temperature for 2 hours. The plates were washed three times with wash buffer (0.05% Tween 20, PBS) and the solution was aspirated. Samples were diluted in PBS containing 1% bovine serum albumin and added to the 96-well plates before incubation at room temperature for 2 hrs. The 96-well plates were washed five times with wash buffer and 100 μL of the human growth hormone monoclonal antibody-biotin conjugate prepared using sulfo-NHS-biotin (Pierce biotechnology, U.S.A.) was added to each well of the 96-well plates and then incubated at room temperature for 2 hrs. The plates were washed five times with wash buffer and incubated with streptabidin-HRP at room temperature for 30 min. Again, the plates were washed five times with wash buffer and reacted with 100 μL of a mixture of TMB (3,3′,5,5′-tetramethylbenzidine) and hydrogen peroxide per well for 30 min in a dark place. To each well was added 100 μL of 1 M sulfuric acid to terminate the reaction, followed by measuring absorbance at 450 nm on a VersaMax microplate reader (Molecular Device, U.S.A.). Values for each sample were calculated by regression analysis after a standard curve was plotted for a reference material.
# Sprague-Dawley rats were used as experimental animals and three of them were administered with human growth hormone while five rats were assigned to each of the fusion-administered groups. The human growth hormone/alpha-1 antitrypsin fusion [T109wt: α1AT/hGH], the human growth hormone/alpha-1 antitrypsin monovariant fusion [T109: α1AT(P357N)/hGH], and the human growth hormone/alpha-1 antitrypsin divariant fusion [T109T: α1AT(P357N, S359T)/hGH], all prepared in Examples 1-3, were subcutaneously injected at a dose of 720 μg/kg into respective groups of Sprague-Dawley rats. The samples were diluted in PBS before injection. Blood samples were taken at 0, 1, 2, 4, 8, 12, 16, 24, 30 and 48 hrs after the injection, and centrifuged to obtain sera. For a control, Scitropin (SciGen, Singapore), a kind of human growth hormone, was subcutaneously injected at a dose of 200 μg/kg. PBS was used as a diluent. Blood samples were taken at 0, 0.33, 1, 2, 5, 8, 12, 18, 24, 30 and 48 hrs after the injection, and centrifuged to obtain sera. Each sample was analyzed in the same manner as the enzyme immunoassay of Test Example 1.
# [2] = tested on: rat lymphoma cell line (NB2 cell); test: In vitro activity in NB2 cells (MTS method); type: cell-based; conditions: 48 hrs
# Experimental: The rat lymphoma cell line (NB2 cell) was maintained in RPMI1640 supplemented with 10% HS (Horse serum), 10% FBS, 2-mercaptoethanol and antibiotics at 37° C. under a 5% CO2 condition. For 24 hrs before experiment, NB2 cells were incubated in RPMI 1640 supplemented with 10% HS. Thereafter, the NB2 cells were washed once with 1×DPBS (Dulbecco's Phosphate Buffered Saline), and plated at a density of 2×10^4 cells/100 μL/well in 5% HS-supplemented RPMI 1640 in 96-well plates (Corning, U.S.A.) with final volume of 100 μL. A series of concentrations of the samples were added in an amount of 20 μL to each well of the 96-well plates, followed by incubation at 37° C. for 48 hrs under a 5% CO2 condition. Subsequently, 20 μL of an MTS solution (Promega, U.S.A.) was added to each well of the 96-well plates and allowed to react at 37° C. for 3 hrs under a 5% CO2 condition. The reaction was terminated by adding 20 μL of 10% SDS (sodium dodecyl sulfate) to each well. Absorbance was measured at 490 nm using a VersaMax microplate reader (Molecular Device, U.S.A.).
# trypsin = biological target: T1, trypsin (Bos taurus, UniProt P00760); test: Inhibitory activity against trypsin; type: biochemical; conditions: trypsin and fusion 10 nM each, 1 hr room temperature
# T1 construct: gene PRSS1
# T1 sequence (P00760 24-246): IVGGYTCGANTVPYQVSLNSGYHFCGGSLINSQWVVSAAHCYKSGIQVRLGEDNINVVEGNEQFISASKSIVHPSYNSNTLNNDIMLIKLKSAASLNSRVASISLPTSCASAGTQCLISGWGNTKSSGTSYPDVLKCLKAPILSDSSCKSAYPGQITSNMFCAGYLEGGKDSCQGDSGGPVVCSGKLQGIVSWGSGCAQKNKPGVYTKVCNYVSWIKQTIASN
# Experimental: (§1) The human growth hormone/alpha-1 antitrypsin fusion [T109wt: α1AT/hGH] prepared in Example 1 and the human growth hormone/alpha-1 antitrypsin monovariant fusion [T109: α1AT(P357N)/hGH] prepared in Example 1 were separately mixed with trypsin. Trypsin and the fusions were used at a concentration of 10 nM, respectively. After being incubated at room temperature for 1 hr, the mixture was reacted with 0.2 mM of the substrate N-Benzoyl-Val-Gly-Arg p-nitroanilide hydrochloride (Sigma, U.S.A.), followed by measuring absorbance at 405 nm. Trypsin unit was set to be the concentration of substrate causing a change in absorbance of 0.001 and the enzyme activity was expressed as units/mg trypsin. For comparison, trypsin was used as a control.
# [3] = biological target: T2, human neutrophil elastase (Homo sapiens, UniProt P08246); test: Inhibitory activity against human neutrophil elastase; type: biochemical; conditions: elastase and fusion 40 nM each, 1 hr room temperature
# T2 sequence (P08246 30-267): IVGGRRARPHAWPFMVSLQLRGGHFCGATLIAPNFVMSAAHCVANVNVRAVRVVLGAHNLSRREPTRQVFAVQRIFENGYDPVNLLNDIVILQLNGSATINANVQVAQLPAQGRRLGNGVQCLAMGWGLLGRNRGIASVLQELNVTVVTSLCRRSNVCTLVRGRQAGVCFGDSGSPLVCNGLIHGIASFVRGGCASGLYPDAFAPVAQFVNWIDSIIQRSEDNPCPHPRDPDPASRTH
# Experimental: as §1, with “with human neutrophil elastase. The elastase” for “with trypsin. Trypsin”, “of 40” for “of 10”, “with 1” for “with 0.2”, “substrate MeOSuc-AAPV-pNA (Santa Cruz Biotechnology, Inc.,” for “substrate N-Benzoyl-Val-Gly-Arg p-nitroanilide hydrochloride (Sigma,”, “nm. Human neutrophil elastase” for “nm. Trypsin”, “units/mg elastase.” for “units/mg trypsin. For comparison, trypsin was used as a control.”
substance,measurement,setting,value
human growth hormone/alpha-1 antitrypsin fusion [T109wt],serum half-life (t1/2),[1],5.3 h
same,time to peak serum concentration (Tmax),[1],8 h
same,EC50,[2],212 pM
same,Ka (association equilibrium constant) with trypsin,trypsin,about 7.5×10^8 M^−1
same,inhibition of human neutrophil elastase,[3],~100%
